test: soluble on expression in E. coli; label from the status in PepcDB or PDB records

Sequence | soluble on expression in E. coli
MNNQNNNFVDFSEDDDMMDADFLGVVIPDDLMNASLEFQRTEPFSFIPAEEDLAPMEILPNNQGDVEMTAVDKNPDKVLFELRVETQIEPTLNYINAENEAVEWDIKSYYDFDNPQRPAQADEAATYQENGYGFVDFQPFAQQQQPAYNGNEPEFLIQRMQITDETYANAHFHQNEYAIEEKPSLFSPSSTPSYCCTSGPISPAYTPIGNNANACAPTRSRRTSTASNKSGGKIGKVAKLGEKSSGEKRTRMTKAEMSRLTEKEKLERKKEQNRANAKNCVKNRNNSKEELKQTLEMLREKVQEAKRQNEMQENGLLAAYETNIFAVQGNNFPYGSLELFYDQLQGSKAEAVEQVQYDNNGEVVQLEEAFNKTEQDYGQYTSVKKIAGLPQNTFASKKSRAKTAFEIADHQLNLKKEEVELREANAIKVVLNQITRELNRYMDGAKLAEQQAFDENFQQFEPS | not soluble
MSLTKVLVIDPKIAGMSGDMFVSSLLALTNSYDLMDELILELEKLNNCNSFKVSVMDEKVNGISAKQLKIEIDEERIKNPDELKEIIINTSKNLMSEKGVKICENIINDLIEAEKKLHGDHFHLHEISSLDTVFDIVLPVLILEKNGFLDGKIYSTPPSLGNGRISMDHGIIPSPAPSTLEILCKHEIKCSKVDSEFELLTPTGAAILSNVTDEFTDSYPEIVLLKTAYGAGTKRMEHVPNVLRLVEGKTDEKIIEKTVILETNIDDISSEILAYAVERLLNEGAPDVFITPVFGKKNRPSSMISVICPYHVHEKFAKILIEETGTLGVRINHYDKIRAKRRMEKLTLDINGVNFGFDVKISDLNGEIVNIKPEFEDLKKIAKNLNIPLRDVLRHANNKIKEIYGFEGHHHHHH | soluble
TSPVNWDVTGTFSMNRTYMKKLPYNGRDKNRVQGGLVWDAKSGTYVETGGLAEGERIGGRWGYKYLGVYDTDEEAAKAPVDTKVSGSKMNKKKVAGDAIWADLDNNGVIDDKDITFIGWANPDKKGALINNLSYKNFSLRLVVDFALGHSIANIWRCRANANARNAIITTTDVTNGNIWWQTGDAATAKYPRYDVASDWDNGYRNHMRTIAYAGMNSNGNADNTAYYSKGDYLCFREVSLGYELPRSVCSKMKVKGVSLNAGVTNIGYITAFDGLNPEQYDGQETGEYFLPIQFNFGVRLTF | not soluble
MTVTDLSKKPLLLLDHVTMQFGGLVAVDDFTNEIREGELVGLIGPNGAGKTTVFNVITGIYTPTKGRIVFNDIDITGLRPYQITHLGIARTFQNIRLFSDMTVLENVLVAQHHVLSNPDADRILVKHGKPRKGHGRFWFWRAVTKIGYLKKEKEMVERAKDLIKRVGLEKVMYEKASSLPYGEQRKLEIARALATEPKLILLDEPAAGMNPKETEDLMEFIKQIRKDFNLTVLLIEHDMKVVMGICERIIVMDYGRIIAEGTPKEIQNDPRVIEAYLGREWESV | soluble
MSLSEYQDLSQQIELIATAEESEQTHLLGEMVENGLDEGSIALILEAFPVEQRVRLWRSLPLEMHIDVLTEMRAEVRISVINALSEIELKLTLAKLDNLSLIEWEDSLPDDIISEALSLINRDELELYDQANEFADDEIGHWADRKVYTLPFSISVRRAKVLLDKYHYDSPQYIYLINKAKKFRGLVSFSDVLQAEETTQLKNLRMEELVTLNAKQTLSDAVDALEHTTLPIVPVLSDDETLIGEIDWHFALSVQREMYEARLMAGTGMDEGDDLFAPVIKSEGHHHHHH | soluble
MDTQNLPDQIIPIFMSFDKNYALGASVSLYSLLSHASRHTSMIDFSPLNQSNKLLGANIVYKIHCLVKGVTLEQQNKLLKTIAPFKKFASLEFIHINSLDHSIESYLNKSCSKRYGGLLVLCRLLLASLFPNYSKIISIDADTVFLGDVASAYFALDNDPTKSLGMVRDTFSHLSFEAFCDFCKRACKNFKIDFSRFSPDELKRIHQGFNMGFLVAHLDRWRQDGFEKTALEFLKTRGKDLFYPEQCLVNMVFWERILELPIYYNCYSDFFKEHYPKNIIMLHFIKYKPWRSVSSLNGRLICYEAEASFWLANLFHTPFKNDFFKERLEMAKDQQMQSFKTHIRSQTIRNYLGFRVKNILKKVFKLSLEHHHHHH | soluble
MGSDKIHHHHHHMTLRLHEYVEKESFNHPYTFVAAQTGLDEKTVRDIFNARAEFLGRWHRFETPRILGIDELYLNKRYRCILTNIEERTLLDLLATRRQNVVTNYLMKLKDRQKVEIVSMDMWNPYRAAVKAVPPQARIVVDKFHVVRMANDALERVRKGLRKELKPSQSRTLKGDRKILLKRAHEVSDRERLIMETWTGAFPQLLAAYEHKERFYGIWDATTRLQAEAALDEWIATIPKGQKEVWSDLVRAVGNWREETMTYFETDMPVTNAYTESINRLAKDKNREGRGYSFEVMRARMLYTTKHKKKAPTAKVSPFYKKTIGYGLPDFAEELNYGVDLSTI | not soluble
MAHHHHHHMILLQLTVVGYLNTGKTSLINSIMNNEIFTNYSHTPLPMIYYKVHKDKNRAFCVEIEDTSVDVDINNFTNMMRKEITTNSKNMKNPVFSYFENPCIPFQAHDPYNSISYGRMAYFLVFDLTNPSTFEYVKMIYLNMSSIYEKYYTLKPFISLVGNKSDLADENCALVREAENFSNEHMVQLWLTSAYTGKNVKKLFLHTINMVYNNTNLWKYDIEESGSESSES | not soluble
MGSDKIHHHHHHMMKTELHFKKSLLVSAVALATFALAGCANTAPQGKYVDGVHHVSGKGKKSDITLEVKVEQGNITQVKTLSHKETESLYLNAERLLPEIVSHNGHEGIDAISGATYSSNGILKAINDLPRIDGTKPEYQSVGARSQTGDDDFKLKWSIQPRLGLVKGDYYFEEARFRQGHMGSMLVVVDSNNLQDVILAEFNESGRPNYYTRLYQNVPKRMSEYNFSMGKKKGTAWVQSALTMEKLMMEKDQLTFELNPNYDPKLGNQLTEPNRLKYQGIDIVAGASNSIQQSMIPLTAKIHNRIQAGASDALFYQQAEKLLDEKGRWTGVTAMLRLVVDKNSHKITHAHYDEIFADEKKDIQDASLKAFYRQSKYDSINYVEPARIGFNVMIDALSLHLKEGGSLFNINDLPAAGDTGSYAQTGFTKRSDAWDNYLRLAGILYKQMRADGVINEHALPAQ | not soluble
MAHHHHHHMTFSVKGGSYSSSHPSPAMHPYVSPSLLPQSHGQQAPPSFSLGDEQYVGVPKRVGVDPTKYKTTICRNWEQTGTCAFRGCTFAHGVEELRAPLRPDGHTPVLRPQHISPGSTPPLRASQPPPPPSSGHYTLEQLLDMLYKEVLHQRELVTVHVEANTTLEGMLRREQAQHDASKKQLEEKTQQCELFARELFARNQQLRKAADSSPEIKELLDQWETQLASFSEADVKKDDVFHTATATSSTDDGGDSGKEYESARIEELLRALQR | not soluble
MGSDKIHHHHHHMKLSFEVLEALDAIDRAGTFAEAAVLIHRVPSALSYLVQKAESDLGVILFDRSGRRAQLTEAGRLLVEDGRRLLQAGRELESKVRGVHAGWEAELRLCLDEILPLPSLWPHVRAFYDMELTTRLRLSTEVLGGVWDALVTGRADIAIGAAGEPPHAPNIAARPIGLLRHVFVVAPHHPLAAVEQPLDSDTISSHRGVIISDTSRALEPRSVAIHDGQPVIIVPTLAAKLDLLCEGMAVGMLPAPVVEEAIRQGKLVERRVIGVRDHTTCYLGWREDKTGRALKWWINRLDQIDLISTLFSTRGVAA | not soluble
MSLIQDNEISSSTKTRIKALKFFSRKMLSELNFGGYRSIFKGLGLEFHEFRPYEDSDDARFIDWNVSSKADSIFSKVFKEDRGMNLHLLVDNSLSMSLGDKVNKKDVQDLLVSIFAHMAFFNNDKIGVTFFSSGTDKFIPSSKGHSHLGLILSETINRNLKPGSSLAYIFKNTAEYYKKRSLVIIISDFKANAYFKSLNVLSKRHNVIAIRISDFFDENFPKIGTLICEDIETGENFLVSGFSKSTLSGYKNYWTLDKIKWKKECIKKNISFIEIDTKEDVFKKLKILLKKGQEGHHHHHH | not soluble
MGSDKIHHHHHHMKKIVVLGGGPGGLVAAYNLARLLRGKAEITLIDKTGYHLFPPSLLWVMVGQREPEDIMRPLSKLEKHGIKVVTASVESIDPDNNKVATSGGEFEYDYLVVSLGSTPRPELMKADDTVCSPWTVEGALDCRRKLAGFKSGRIIVGAWSWPYKCPPAPFETAFLVKYLLEQRGGDAQVTVVHFWKKPMEPFGPTMAEAFQSFLDMYGVGFKGGVEPMEARGGRLVASSGEEIEYDLAVFAPPHEPPKPVAESPLGDESLGGYMRVDKRTLRSPRYGNVFGVGDIIAPSLGLGMAGIFAHFQAEYVASQIADEILGTYMGEHYNMSGVCVMDLGYAGAAVYCDFSKKVMGEAEYPDCVILGGMRAFRPLKYAFERYWLEKWFT | not soluble
MYTLSAGIWEKFFKKKDYYVVIVGLDNAGKTTFLEQTKSHFVKDYGVLNPSKITATVGLNTGNVELNNTCLHFWDLGGQESLRELWATYYDDANAMIFVVDATRSDLFPIVASQFKEVMANEIVQNIPVLVAVNKSEMEGAAAAAEVRMLLEDDNHRSDLAVLPVSALEGTNIERCVHWIVRSLASQPLYL | not soluble
MGSDKIHHHHHHMTIRQTKEANLLISERADFQVTAKIEQMAKGYIDRWHQHPWHQIAFPFEGILQTKVADSQFVIPHSGMLFIPANTPHESFVVTDTKFIGIYLNPQFQNHFPLTAKAISVTPFLRELVLHINHGVSNSIVSEEELSKLVAVLIDQISSGESYQMKLLLPSDRRLMIIFKALMTDPQLNTKLSDWAKQVGASERTLSRLFTKELGMTFPLWRQHLRLVSSLNLLETNLSVQEIAFKVGYNADSSFIYAFKKLFQQTPQQYRHSGFKLSSRINDK | not soluble
HHHHHHGSQEAPHFKPGEDPRQPHQEWKLIENMSDEFEGKKIDEKKWQISGQGWIGRAPGLFLAENISLNNGSLQITTTMLPEPIVKNNKTYTHGGGYVGSRNGMTYGYYECEMKANKTFMSSTFWLINEGKDRLGCDKRTTELDIQESVGQITNDADWMKYFDQTMNSNTHSRNIPEGCEYEKGSSKGKAELGGKAYEDFHVYGVWWKSKDEIIFFLDGKMQSKVTPPADFDIEMYLRMVVETYDWNPVPKDGGMTGSKEDRTTTYNWVRSWQLVDSKN | soluble
MGSDKIHHHHHHMKLISVRRIWEQAAHNAFTDLIAFQEALFCVFREGTAHVSPDGALRILRSVDGGETWQSVALIRSDEADLRDGKLIEYQGELLLLGGGTLHNKSGLQSHLWRSADGRVWSDALKIADKGYWLWRLTEHQNTLYGVGYRPGPDGDTRLYKSEDGVQFKTWLKVFNNQGYVNETAIVFDQDSGFCLLRRDPVWGPEFFGLLGHSRAPFTDWQWQELDKRIGGPVMLMYQSRLLAVVRLYDEQVRTALVEIHSDTGVVQELLTLPSKGDTSYAGVVIDGNELWVSYYSSHELADSQLDTQNSLDESSRAGKAKTMIYFAKILLS | not soluble
MNYHSTNVNEIWDACLRILQDIVDERAYRTWFLPIIPVSIEGDTLTLQVPSQFFCEFLEGNFVEQLRTVLGRVIGPNASLQYNALVDNSSPKYPGTVTLAGCADGGQAAEQFDVNLLHRHM | not soluble
MEVDKKDEREAESSEQVVNPWEVSAKDGGKIDYDKLIDKFGCQRLDESLIDRVQRLTSRQPHVFLRRSVFFAHRDFNEILDAYERGDKFYLYTGRGPSSEALHLGHLIPFMFTKYLQEAFKVPLVIQLTDDEKSIWKNLSVEESQRLARENAKDIIACGFDVTKTFIFSDFDYVGGAFYKNMVKVGKCVTLNKAMGIFGFSGEDPIAKLSFPPVQAVPSFPSSFPHLFPGKDNLRCLIPCAIDQDPYFRMTRDVAPRLGYSKPALIESTFFPALQGENGKMSASDPNSAIYVTDSAKDIKNKINRYAFSGGQDSIEKHRELGANLEVDIPVKYLSFFLEDDSELEHIKKEYGEGRMLTGEVKKRLTEVLTEIVERHRRARAAVTDEMVDAFMAVRPLPSMFE | soluble

— the DeepSol protein solubility set
